# Laboratory results taken from the Human Domainome abundance scans (Beltran et al. 2025).
# ± gives the uncertainty stated by the source.
# B1: Metastasis-associated protein MTA3, residues 265 to 317; numbered along this chain, Q9BTC8 (parent)
# chain: RDEMEEWSASEASLFEEALEKYGKDFNDIRQDFLPWKSLTSIIEYYYMWKTTD
# Variants of: B1
# Assay: abundance fitness (aPCA) (normalised: wild type 0, dead -1); higher = more abundant; growth selection in yeast, the domain comes from the species named
# Details: Homo sapiens
row,Variant,abundance fitness
1,T51F,-0.732 ± 0.35
2,T51L,-0.147 ± 0.084
3,T51C,-0.244 ± 0.12
4,T51P,-0.1 ± 0.1
5,T51D,0.134 ± 0.18
6,T51R,-0.097 ± 0.075
7,T51V,-0.624 ± 0.14
8,D28A,0.861 ± 0.079
9,D28G,0.079 ± 0.12
10,D28N,-0.112 ± 0.33
11,D28Y,0.322 ± 0.22
12,D28W,0.035 ± 0.11
13,D28T,0.59 ± 0.16
14,D28C,0.882 ± 0.17
15,D28F,-0.015 ± 0.42
16,D28L,0.978 ± 0.099
17,D28M,0.331 ± 0.2
18,D28I,0.324 ± 0.16
19,D28K,0.9 ± 0.12
20,D28Q,1.19 ± 0.16
21,D28P,-0.522 ± 0.48
22,D28R,0.549 ± 0.14
23,D28E,0.305 ± 0.11
24,D28S,0.644 ± 0.13

row,Variant,abundance fitness
1,N27V,-0.246 ± 0.09
2,N27T,-0.148 ± 0.35
3,N27E,0.431 ± 0.19
4,N27S,0.037 ± 0.15
5,N27Y,-0.305 ± 0.49
6,N27A,-0.015 ± 0.22
7,N27W,-0.635 ± 0.27
8,N27Q,-0.075 ± 0.31
9,N27L,-0.602 ± 0.22
10,N27D,0.074 ± 0.15
11,N27M,-0.464 ± 0.13
12,N27I,0.743 ± 0.18
13,W36H,-0.239 ± 0.069
14,W36K,-0.217 ± 0.12
15,W36G,-0.484 ± 0.092
16,W36Y,-0.615 ± 0.082
17,W36E,-0.884 ± 0.3
18,W36Q,-0.422 ± 0.17
19,W36L,-0.749 ± 0.082
20,W36V,-0.657 ± 0.076
21,W36M,-0.677 ± 0.11
22,W36T,-0.696 ± 0.084
23,W36R,-0.58 ± 0.091
24,W36C,-0.733 ± 0.092

row,Variant,abundance fitness
1,W36A,-0.788 ± 0.08
2,W36I,-0.874 ± 0.11
3,W36S,-0.645 ± 0.083
4,W36N,-0.177 ± 0.1
5,W49M,0.353 ± 0.12
6,W49Q,0.349 ± 0.11
7,W49L,0.112 ± 0.061
8,W49V,-0.204 ± 0.083
9,W49K,0.497 ± 0.09
10,W49T,0.248 ± 0.073
11,W49P,-0.599 ± 0.12
12,W49D,-0.532 ± 0.36
13,W49N,0.404 ± 0.15
14,W49C,0.061 ± 0.11
15,W49R,0.514 ± 0.083
16,W49A,-0.088 ± 0.12
17,W49Y,0.077 ± 0.091
18,W49E,0.075 ± 0.27
19,W49H,0.122 ± 0.12
20,W49I,-0.04 ± 0.18
21,S38H,-0.425 ± 0.19
22,S38R,-0.749 ± 0.14
23,S38I,-0.629 ± 0.2
24,S38Q,-0.393 ± 0.14

row,Variant,abundance fitness
1,S38C,-0.995 ± 0.47
2,S38G,0.47 ± 0.2
3,S38D,-0.71 ± 0.21
4,S38F,-0.844 ± 0.24
5,S38L,-0.69 ± 0.12
6,S38E,0.047 ± 0.17
7,S38K,-0.852 ± 0.23
8,S38Y,-0.711 ± 0.092
9,S38M,-0.159 ± 0.17
10,S38P,-0.563 ± 0.18
11,S38W,-0.992 ± 0.42
12,S38V,-0.821 ± 0.23
13,I43A,-0.148 ± 0.089
14,I43C,-0.517 ± 0.1
15,I43T,-0.193 ± 0.095
16,I43K,0.268 ± 0.1
17,I43L,-0.689 ± 0.089
18,I43Q,0.136 ± 0.077
19,I43F,-0.474 ± 0.18
20,I43H,-0.075 ± 0.075
21,I43V,-0.381 ± 0.12
22,I43M,-0.01 ± 0.085
23,I43S,-0.297 ± 0.093
24,I43W,-0.559 ± 0.24

row,Variant,abundance fitness
1,I43R,0.162 ± 0.065
2,I43E,0.392 ± 0.11
3,I43P,-0.875 ± 0.23
4,I43N,-0.7 ± 0.26
5,I43G,-0.491 ± 0.11
6,I43D,-1.11 ± 0.35
7,I43Y,-0.304 ± 0.17
8,K50N,0.024 ± 0.13
9,K50Q,-0.102 ± 0.077
10,K50L,-0.444 ± 0.074
11,K50T,-0.271 ± 0.08
12,K50E,-0.278 ± 0.092
13,K50D,-0.593 ± 0.27
14,K50W,-0.882 ± 0.26
15,K50I,-0.653 ± 0.089
16,K50V,0.311 ± 0.11
17,K50R,-0.288 ± 0.072
18,K50H,-0.127 ± 0.1
19,K50F,-0.62 ± 0.17
20,K50C,-0.279 ± 0.13
21,K50A,-0.42 ± 0.083
22,K50S,-0.2 ± 0.074
23,K50P,-0.472 ± 0.089
24,K50G,-0.877 ± 0.18

row,Variant,abundance fitness
1,K50M,-0.171 ± 0.13
2,I42T,-0.605 ± 0.089
3,I42P,-0.798 ± 0.16
4,I42M,-0.833 ± 0.13
5,I42Q,-0.875 ± 0.13
6,I42E,-0.888 ± 0.26
7,I42R,-0.69 ± 0.073
8,I42L,-0.658 ± 0.11
9,I42H,-0.744 ± 0.14
10,I42V,-0.475 ± 0.096
11,I42D,-0.828 ± 0.14
12,I42Y,-0.572 ± 0.16
13,I42F,-0.634 ± 0.2
14,I42W,-0.204 ± 0.13
15,I42C,-0.711 ± 0.13
16,I42S,-0.713 ± 0.1
17,I42A,-0.98 ± 0.17
18,T40Y,-0.571 ± 0.23
19,T40I,-0.771 ± 0.27
20,T40W,-0.898 ± 0.18
21,T40S,-0.336 ± 0.093
22,T40P,-0.332 ± 0.076
23,T40A,-0.322 ± 0.092
24,T40F,-0.875 ± 0.18

row,Variant,abundance fitness
1,T40V,-0.714 ± 0.087
2,T40R,-0.029 ± 0.08
3,T40C,-0.328 ± 0.2
4,T40D,0.195 ± 0.1
5,T40L,-0.827 ± 0.094
6,T40M,-0.435 ± 0.084
7,T40G,-0.188 ± 0.15
8,T40N,0.129 ± 0.086
9,T40H,-0.138 ± 0.097
10,T40Q,0.195 ± 0.073
11,Y22V,0.068 ± 0.16
12,Y22W,-0.84 ± 0.28
13,F33L,-0.169 ± 0.46
14,Y45G,-0.98 ± 0.33
15,Y45V,-1.01 ± 0.32
16,Y45S,-0.561 ± 0.35
17,Y45Q,-0.566 ± 0.16
18,Y45W,-0.546 ± 0.39
19,Y45M,-0.872 ± 0.18
20,Y45R,-0.174 ± 0.19
21,Y45E,-0.77 ± 0.21
22,Y45P,-0.726 ± 0.28
23,Y45T,-0.41 ± 0.42
